According to patent publication US7943337B2, “Method for screening a protease” (Asahi Kasei Pharma Corporation, priority 2003, dated 2011):

Legend:
Type in all cases: biochemical
[1] = Substrate specificity of ketoamine oxidases; conditions: for absorbance difference (A1 − Ab): pH 7.5, 37° C., 5 minutes, 555 nm; for relative activity: FVH = 100 (FOD2: FZK = 100)
Method: (§1) Determination was performed by the same method described in <Reference Example: Substrate Specificity of Ketoamine Oxidase derived from Curvularia clavata YH923 (FERM BP-10009), Ketoamine Oxidase derived from Neocosmospora vasinfecta 474, and Ketoamine Oxidase derived from Fusarium oxysporum (manufactured by Asahi Kasei Pharma)>.

[2] = Substrate specificity of ketoamine oxidases; conditions: for absorbance difference (A1 − Ab): pH 7.5, 37° C., 5 minutes, 555 nm; for relative activity: FVH = 100 (FOD2: FZK = 100); remark: listed apart in the source
Method: The phrase “reactivity of a ketoamine oxidase to ε-1-deoxyfructosyl-(α-benzyloxycarbonyl-L-lysine) (hereinafter also referred to as FZK) is 5% or less compared with that to 1-deoxyfructosyl-L-valyl-L-histidine (hereinafter also referred to as FVH)” refers to the fact that the rate of the reactivity is 5% or less, which is determined by the following steps: adding 20 μl of a ketoamine oxidase solution to 200 μl of a reaction solution (50 mM Tris-HCl buffer (pH 7.5), 0.1% Triton X-100, 0.03% 4-aminoantipyrine, 0.02% TOOS, 5 U/ml peroxidase, and 2 mM FZK or FVH); allowing the mixture to react at 37° C. for 5 minutes; adding 0.5 ml of 0.5% SDS; determining an absorbance at 555 nm (A1); performing the same operations using a reaction solution containing no FZK and FVH to determine an absorbance (Ab); and determining the reactivity from the difference (A1−Ab).
as §1

[3] = Specificity of mutant ketoamine oxidase to various substrates; conditions: Table 17; FVH = 100
Method: 100 μl of a preliminary sterilized expression medium (a medium containing 3% of sorbitol, 1.5% of polypeptone, 1.5% of yeast extract, and 50 μg/ml of ampicillin and adjusted to pH 7.0) was added to a 96-well microplate. Grown transformants were inoculated thereto and cultured overnight at 30° C. After the termination of the culture, each 5 μl of the culture solution was dispensed into two wells of a 96-well plate and 50 μl of a determination reagent (a 50 mM Tris-HCl buffer (pH 7.5) containing 1 mM FVH or FZK, 0.02% TOOS, 0.02% 4-aminoantipyrine and 10 U/ml peroxidase) was added to each well, and a reaction was carried out at 30° C. for 10-60 minutes. 150 μl of 0.5% SDS was added thereto to terminate the reaction and absorbance was determined at 550 nm using a Microreader (model 450, manufactured by Bio-Rad). From the constructed mutant library, a recombinant which produces ketoamine oxidase that act on FVH but has a decreased activity on FZK was selected. As a result of the screening, 923-F1 and 923-F2 were obtained as favorable mutant strains. Ketoamine oxidase genes harbored by those mutant strains were sequenced and resulted that mutations were introduced in the bases indicated by Table 15.
Note that, concentration of each substrate was set to be 1 mM and other reaction conditions were set according to the activity determination method described in <Screening of Mutant Ketoamine Oxidase having Decreased Action on FZK>.
Ketoamine oxidase derived from Neocosmospora vasinfecta 474 (FOD474) has high homology to ketoamine oxidases containing FOD923 and its amino acid sequence at an N-terminal region containing 158 of FOD923 is highly conserved as shown in FIG. 1. Using pPOSFOD474, FOD474 mutant strain 474-F1 in which 158 of FOD474 is substituted by a different amino acid (threonine) was acquired. […] 58 is a site that strongly affect on the specificity to FVH even in a case of a ketoamine oxidase derived from other microorganism species.

[4] = pH dependency of activity of ketoamine oxidase
Method: (§2) 20 μl of an enzyme solution was added to 200 μl of a reaction solution (50 mM buffer, 0.1% Triton X-100, 0.03% 4-aminoantipyrine, 0.02% TOOS, 5 U/ml peroxidase, 2 mM substrate). The whole was incubated at 37° C. for 5 minutes and then 500 μl of 0.5% SDS was added thereto followed by determining absorbance at 555 nm. Tris-HCl (pH 7.5, 8.0, 8.5), PIPES (pH 6.0, 6.5, 7.0), and Bistris-HCl (pH 5.0, 5.5, 6.0, 6.5) were used as the buffers for determination. Also, absorbance was determined using a reaction solution containing no substrates. Differences in the absorbance when FVH and FZK each were used as a substrate and concentrations of the enzyme in the enzyme solution to be used are described in Table 18.

[5] = pH dependency of specific activity (FZK/FVH)
Method: as §2

[6] = Reaction for releasing fructosyl valine from FVHL by angiotensin-converting enzyme; conditions: 20 U/ml enzyme solution, 2 mM FVHL, 37° C., 1 hour; 730 nm
Method: Then, 200 μl of a coloring solution (50 mM Tris-HCl (pH 7.5), 0.1% Triton X-100, 5 U/ml POD, 50 U/ml FOD2, and 0.02 mM DA-64) was added to each resultant, and the mixture was allowed to react at 37° C. for 5 minutes. Thereafter, 500 μl of 0.5% SDS was added to terminate the coloring reaction, and the absorbance at 730 nm was determined. The same reaction was performed except that distilled water was used instead of the 2 mM FVHL solution. Meanwhile, 200 μl of the coloring solution was added to 40 μl of an FV solution (0, 5, 10, 20, or 50 μM), and determination was performed in the same way as above.

B1: FOD474: ketoamine oxidase of Neocosmospora vasinfecta 474 that reacts with FVH, expressed in Escherichia coli (protein, listed as Neocosmospora vasinfecta)
chain: MTTPRKETTVLIIGGGGTIGSSTALHLLRAGYTPSNITVLDTYPIPSAQSAGNDLNKIMGIRLRNKVDLQLSLEARDMWRNDALFRPFFHNTGRLDCESSAEGVEGLRREYQKLVEAGVGLEETHEWLDSEEAILEKAPLLQREEIEGWKAIWSEEGGWLAAAKAINAIGEELQRQGVRFGFGGAGSFKRPLFADDGTTCIGVETVDGTQYHADKVVLAAGAWSPALVDLEEQCCSKAWVYAHMQLTPEEAAVYKGCPVVYHGDVGFFFEPNENGVIKVCDEFPGFTRFKQHQPYGAPAPKPVSVPRSHAKHPTDTYPDASEESIKRAVSTFLPRFKDKPLFNRALCWCTDTADSALLICEHPRWKNFILATGDSGHSFKLLPIIGKHVVELVEGRLADDLAEAWRWRPGQGDARKSIRAAPAKDLADMPGWKHDQDSESR
modifications: CDS (1)..(1323)
notes: ketoamine oxidase of Neocosmospora vasinfecta 474 that reacts with FVH, expressed in Escherichia coli
- absorbance difference (A1 − Ab) ([1]; 2 mM FV): 0.289
- absorbance difference (A1 − Ab) ([1]; 2 mM FVHL): 0.002
- absorbance difference (A1 − Ab) ([1]; 2 mM FVHLT): 0.002
- absorbance difference (A1 − Ab) ([1]; 2 mM FVL): 0.059
- absorbance difference (A1 − Ab) ([1]; 2 mM α-glycated pentapeptide): 0.003
- absorbance difference (A1 − Ab) ([1]; 2 mM β-glycated pentapeptide): 0.002
- relative activity ([1]; substrate FV): 445%
- relative activity ([1]; substrate FVHL): 0%
- relative activity ([1]; substrate FVHLT): 0%
- relative activity ([1]; substrate FVL): 0.91%
- relative activity ([1]; substrate α-glycated pentapeptide): 0%
- relative activity ([1]; substrate β-glycated pentapeptide): 0%
- absorbance difference (A1 − Ab) ([2]; 2 mM FVH): 0.221
- absorbance difference (A1 − Ab) ([2]; 2 mM FZK): 0.032
- relative activity ([2]; substrate FVH): 100%
- relative activity ([2]; substrate FZK): 15%
- specificity, substrate FV [3]: 540
- specificity, substrate FVH [3]: 100
- specificity, substrate FZK [3]: 40
- difference in absorbance, substrate FVH ([4]; Bistris pH 5.0): 0.023
- difference in absorbance, substrate FZK ([4]; Bistris pH 5.0): 0.012
- difference in absorbance, substrate FVH ([4]; Bistris pH 5.5): 0.084
- difference in absorbance, substrate FZK ([4]; Bistris pH 5.5): 0.022
- difference in absorbance, substrate FVH ([4]; Bistris pH 6.0): 0.187
- difference in absorbance, substrate FZK ([4]; Bistris pH 6.0): 0.042
- difference in absorbance, substrate FVH ([4]; Bistris pH 6.5): 0.273
- difference in absorbance, substrate FZK ([4]; Bistris pH 6.5): 0.063
- difference in absorbance, substrate FVH ([4]; PIPES pH 6.0): 0.265
- difference in absorbance, substrate FZK ([4]; PIPES pH 6.0): 0.066
- difference in absorbance, substrate FVH ([4]; PIPES pH 6.5): 0.303
- difference in absorbance, substrate FZK ([4]; PIPES pH 6.5): 0.093
- difference in absorbance, substrate FVH ([4]; PIPES pH 7.0): 0.243
- difference in absorbance, substrate FZK ([4]; PIPES pH 7.0): 0.132
- difference in absorbance, substrate FVH ([4]; Tris pH 7.5): 0.163
- difference in absorbance, substrate FZK ([4]; Tris pH 7.5): 0.162
- difference in absorbance, substrate FVH ([4]; Tris pH 8.0): 0.104
- difference in absorbance, substrate FZK ([4]; Tris pH 8.0): 0.200
- difference in absorbance, substrate FVH ([4]; Tris pH 8.5): 0.063
- difference in absorbance, substrate FZK ([4]; Tris pH 8.5): 0.210
- specific activity (FZK/FVH) ([5]; Bistris pH 5.0): 10.4%
- specific activity (FZK/FVH) ([5]; Bistris pH 5.5): 5.2%
- specific activity (FZK/FVH) ([5]; Bistris pH 6.0): 4.9%
- specific activity (FZK/FVH) ([5]; Bistris pH 6.5): 4.6%
- specific activity (FZK/FVH) ([5]; PIPES pH 6.0): 5.0%
- specific activity (FZK/FVH) ([5]; PIPES pH 6.5): 6.1%
- specific activity (FZK/FVH) ([5]; PIPES pH 7.0): 10.9%
- specific activity (FZK/FVH) ([5]; Tris pH 7.5): 19.9%
- specific activity (FZK/FVH) ([5]; Tris pH 8.0): 38.5%
- specific activity (FZK/FVH) ([5]; Tris pH 8.5): 66.7%

B2: ACEP: angiotensin-converting enzyme derived from porcine kidney (manufactured by Sigma Corporation) (protein, UniProt F1RRW5 34-1309, looked up)
Angiotensin-converting enzyme: LDSALQPGNFTADEAGAEDFAQSFNSSSEQVLFQSTAASWAHDTNITEENARRQEEAALISQEFSEVWGQKAKALYDPIWQNFTSRTLRRIIGVVRTLGSANLSPAKRQQYNSLLSNMTRIYSTAKVCFPNKTATCWSLDPELTNILATSRSYTLLLYAWEGWHNAAGIPLKPLYQDFTALSNEAYKQDGFSDTGAYWRSLYDSPTFTEDLERLYHQLEPLYLNLHAYVRRALHRQYGDRFINLRGPIPAHLLGNMWAQSWNNIYDMVVPFPGKPSLDVTSAMVQKGWNVTHMFRVAEEFFTSLGLLPMPPEFWAESMLEKPSDGREVVCHASAWDFYNRKDFRIKQCTQVTMDQLSTVHHEMGHVQYYLQYKDQHVSLRRGANPGFHEAIGDVLALSVSTPAHLHKIGLLDHVTSDWESDINYLLKMALEKIAFLPFGYLVDQWRWGVFSGRTPPLYNYDWWYLRTKYQGVCPPVVRNETHFDAGAKYHVPNVTPYIRYFVSFILQFQFHQALCKEAGHQGPLHQCDIYQSTRAGAKLRAVLQAGSSRPWQEVLKDMVGSGALDAQPLLDYFQPVTQWLEEQNQRSGDILGWPEYQWRPPMPDNYPEGIDLVSDEAEASKFVEEYDRRSQVVLNEYAEANWDYNTNITAEGSKRVLEKSTQMANHTVKYGIWARKFDVANIQNFTLKRMIKKIQDLERAALPFKELEEYNQILLDMETAYSVASVCHANSTCLQLEPDLTNLMATSRSYEELLWAWKGWRDKVGRAILPYFPKYVELTNKAARLNGYEDGGDAWRAAYEMPFLEQELEQLFQELQPLYLNLHAYVRRALHHHYGPEHINLEGPIPAHLLGNMWAQTWSNIYDLVVPFPSASKMDASEAMINQGWTPQRMFKEADNFFTSLGLLPVPPEFWNKSMLEKPTDGREVVCHASAWDFFNGKDFRIKQCTTVNMEDLVVAHHEMGHIQYFMQYKDLPVTFREGANPGFHEAIGDVLALSVSTPKHLRSINLLKSEDDGYEEDINFLMKMALDKVAFVPFSYLVDQWRWRVFDRSITKENYNQEWWSLRLKYQGLCPPVARSQGDFDPGAKFHIPSSVPYIRYFVSFIIQFQFHEALCQAAGHKGPLHKCDIYQSKEAGRRLADAMKLGLSKPWPEAMQLITGQPNVSASAMMTYFKPLLDWLVTENGRHGEKLGWPQYNWTPNSARLEGSFAGTGRVNFLGLNLEEQQARVGQWVLLFLGVTLLVATMGLTQRLFSIRHQILRRTHRGPQFGSEVELRHS
- absorbance difference showing FV released [6]: −0.006
